# Reference: PMC6158681
# Molecular target: SpyCatcher-mi3 (Streptococcus pyogenes | Thermotoga maritima)
substance,measurement,value
SpyTag-MBP,% conjugation,91%
